Data: paper PMC2928128

Experiments:
Assay in all cases: SPR
[1] = target: GST-CDH23 + exon68ΔITEL (residues 847-1110)
[2] = target: GST-CDH23Δexon68 (cytoplasmic region of cadherin-23 lacking the exon68-encoded sequence, residues 847-1079)
[3] = target: GST-CDH23 + exon68 (cytoplasmic region of cadherin-23 including the exon68-encoded sequence, residues 847-1114)
[4] = target: GST-CDH23Δexon68ΔITEL (residues 847-1075)

Measured: Kd

Chain of harmonin-a PDZ3 domain (residues 434-545) (domain or fragment) (Q9ES64 434-545): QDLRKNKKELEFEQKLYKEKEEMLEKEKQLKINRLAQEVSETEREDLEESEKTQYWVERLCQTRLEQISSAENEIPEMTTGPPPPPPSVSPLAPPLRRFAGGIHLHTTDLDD

harmonin-a PDZ3 domain (residues 434-545) (domain or fragment)
> 5 µM: all assays above
